Patent publication US6998260 (PROMEGA, dated 2006)

B1: recombinant human β-I tryptase (from pPIC9-HumTry, expressed in Pichia pastoris) (enzyme)
chain: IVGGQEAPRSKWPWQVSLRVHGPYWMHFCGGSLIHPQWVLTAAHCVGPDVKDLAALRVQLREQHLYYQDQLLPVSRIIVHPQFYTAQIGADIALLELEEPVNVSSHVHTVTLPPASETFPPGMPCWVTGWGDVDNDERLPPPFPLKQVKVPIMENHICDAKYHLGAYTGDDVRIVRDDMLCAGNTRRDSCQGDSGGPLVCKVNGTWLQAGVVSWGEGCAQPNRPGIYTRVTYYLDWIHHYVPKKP
modifications: N-glycosylated at two sites (N102 and N204, as the filing says)
notes: Secreted as a mature monomer that self-assembles into a homotetramer; On the Western blots (SDS-PAGE) it stood as denatured subunits; also called rh β I; R βI tryptase
B2: recombinant human β-II tryptase (from pPIC9-HumTryN102K, expressed in Pichia pastoris) (enzyme)
chain: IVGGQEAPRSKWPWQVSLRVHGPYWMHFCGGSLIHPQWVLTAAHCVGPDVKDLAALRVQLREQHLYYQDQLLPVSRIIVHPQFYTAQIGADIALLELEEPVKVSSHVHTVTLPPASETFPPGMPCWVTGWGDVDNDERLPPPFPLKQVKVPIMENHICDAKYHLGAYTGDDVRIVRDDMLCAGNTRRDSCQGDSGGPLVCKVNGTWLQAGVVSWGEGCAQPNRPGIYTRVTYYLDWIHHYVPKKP
modifications: N-glycosylated at one site
notes: Homotetramer by gel filtration; also called rh β II; R βII tryptase
B3: human β-I tryptase active site mutant S194A (enzyme)
chain: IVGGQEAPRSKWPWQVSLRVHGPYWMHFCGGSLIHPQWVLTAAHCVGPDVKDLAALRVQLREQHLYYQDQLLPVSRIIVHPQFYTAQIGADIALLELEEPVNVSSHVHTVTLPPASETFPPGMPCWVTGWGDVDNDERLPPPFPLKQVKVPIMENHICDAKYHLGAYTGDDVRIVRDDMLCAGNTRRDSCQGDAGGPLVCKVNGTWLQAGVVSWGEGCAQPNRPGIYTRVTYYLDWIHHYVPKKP
notes: also called β-I S194A active site mutant; S194A β-I tryptase active site mutant

Molecular target: the molecule itself
Test: gel filtration; self-association of subunits into a homotetramer

Binding result, binds:
B1
B2
B3
